Data: US20120021995A1 (published 2012)

How the values were obtained:
[1] = molecular target: T1, recombinant human TRAIL R1 (DR4)/Fc chimera (human, UniProt O00220 24-239); assay: SPR (Biacore), DR4-Fc captured by anti-Fc, ATRIMER analyte; apparent
T1 construct: bought (R&D Systems); not shown: Fc of the bought chimera (R&D Systems)
T1 sequence: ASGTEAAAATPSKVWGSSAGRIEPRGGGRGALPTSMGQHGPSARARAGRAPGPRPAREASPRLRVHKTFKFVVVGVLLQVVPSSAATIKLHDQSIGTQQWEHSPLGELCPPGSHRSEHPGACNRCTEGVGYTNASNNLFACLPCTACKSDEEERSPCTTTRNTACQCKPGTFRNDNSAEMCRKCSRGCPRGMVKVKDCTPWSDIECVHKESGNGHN
Procedure: (§1) Immobilization of an anti-human IgG Fc antibody (Biacore) to the CM5 chip (Biacore) was performed using standard amine coupling chemistry and this surface was used to capture recombinant human DR4 or DR5 receptor Fc fusion protein (R&D Systems). ATRIMER™ dilutions (1-500 nM) were injected over the DR4 and DR5 receptor surface at 30 μl/min and kinetic constants were derived from the sensorgram data using the Biaevaluation software (version 3.1, Biacore). Data collection was 3 minutes for the association and 5 minutes for dissociation. The anti-human IgG surface was regenerated with a 30 s pulse of 3 M magnesium chloride. All sensorgrams were double-referenced against an activated and blocked flow-cell as well as buffer injections.

[2] = molecular target: T2, DR4 (TRAIL-R1) on cancer cells (human, UniProt O00220 24-468); assay: cell-based or functional assay
T2 sequence: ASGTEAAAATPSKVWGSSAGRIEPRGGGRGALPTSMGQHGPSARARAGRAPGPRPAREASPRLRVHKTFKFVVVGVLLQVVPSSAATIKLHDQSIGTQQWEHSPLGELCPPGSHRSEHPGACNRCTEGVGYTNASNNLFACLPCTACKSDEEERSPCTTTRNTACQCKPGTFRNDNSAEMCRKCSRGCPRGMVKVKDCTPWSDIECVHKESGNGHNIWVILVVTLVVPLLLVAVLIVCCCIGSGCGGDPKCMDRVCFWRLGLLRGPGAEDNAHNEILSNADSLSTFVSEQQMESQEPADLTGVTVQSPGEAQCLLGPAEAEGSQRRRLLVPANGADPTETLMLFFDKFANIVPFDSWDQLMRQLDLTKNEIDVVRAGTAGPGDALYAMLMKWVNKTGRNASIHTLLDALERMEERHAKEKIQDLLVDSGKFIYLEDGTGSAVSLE

[3] = molecular target: T3, recombinant human TRAIL R2 (DR5)/Fc chimera (human, UniProt O14763 54-182); assay: SPR (Biacore), DR5-Fc captured by anti-Fc, ATRIMER analyte; apparent
T3 construct: bought (R&D Systems); not shown: Fc of the bought chimera (R&D Systems)
Procedure: as §1

[4] = molecular target: T1, recombinant human TRAIL R1 (DR4)/Fc …; assay: phage ELISA on DR4/Fc

B1: 014-42.3B8 (designed binder)
chain: EPPTQKPKKIVNAKKDVVNTKMFEELKSRLDTLAQEVALLKEQQALQTVCLKGTKVHMKCFLAFTQTKTFHEASEDCISRGGTLSTPQTGSENDALYEYLRQSVGNEAEIWLGLNGWLEGVGWVDMTGARIAYKNWETEITAQPDGGEHWGWENCAVLSGAANGKWFDKRCRDQLPYICQFGIV
notes: ATRIMER; also called 14p42P3B8
[1]
  Ka: 1.11e+08 M⁻¹
  Kd: 9.01 nM
  koff: 0.00101 s⁻¹
  kon: 112000 M⁻¹ s⁻¹

B2: 142p62P1G2 (designed binder)
chain: EPPTQKPKKIVNAKKDVVNTKMFEELKSRLDTLAQEVALLKEQQALQTVCLKGTKVHMKCFLAFTQTKTFHEASEDCISRGGTLSTPQTGSENDALYEYLRQSVGNEAEIWLGLNGWLEGSGWVDMTGARIAYKNWADERFLQPDGGVQWRWENCAVLSGAANGKWFDKRCRDQLPYICQFGIV
[2]
  EC50 Colo205 (cell killing): 0.32 nM
  EC50 ST486 (cell killing): 0.2 nM

B3: 142p72P1C9 (designed binder)
chain: EPPTQKPKKIVNAKKDVVNTKMFEELKSRLDTLAQEVALLKEQQALQTVCLKGTKVHMKCFLAFTQTKTFHEASEDCISRGGTLSTPQTGSENDALYEYLRQSVGNEAEIWLGLNGWLEGSGWVDMTGARIAYKNWGDPRWSQPDGGVQWRWENCAVLSGAANGKWFDKRCRDQLPYICQFGIV
[2]
  EC50 Colo205 (cell killing): 0.18 nM
  EC50 ST486 (cell killing): 0.03 nM

B4: 142p62P1A2 (designed binder)
chain: EPPTQKPKKIVNAKKDVVNTKMFEELKSRLDTLAQEVALLKEQQALQTVCLKGTKVHMKCFLAFTQTKTFHEASEDCISRGGTLSTPQTGSENDALYEYLRQSVGNEAEIWLGLNGWLEGSGWVDMTGARIAYKNWGDQRLAQPDGGVQWRWENCAVLSGAANGKWFDKRCRDQLPYICQFGIV
[2]
  EC50 Colo205 (cell killing): 0.39 nM
  EC50 ST486 (cell killing): 0.3 nM

B5: 014-42.3D10 (designed binder)
chain: EPPTQKPKKIVNAKKDVVNTKMFEELKSRLDTLAQEVALLKEQQALQTVCLKGTKVHMKCFLAFTQTKTFHEASEDCISRGGTLSTPQTGSENDALYEYLRQSVGNEAEIWLGLNGYLEGYGWVDMTGARIAYKNWETEITAQPDGGATIAWENCAVLSGAANGKWFDKRCRDQLPYICQFGIV
notes: ATRIMER
[1]
  Ka: 6.58e+06 M⁻¹
  Kd: 152 nM
  koff: 0.00185 s⁻¹
  kon: 12200 M⁻¹ s⁻¹

B6: 014-42.3D11 (designed binder)
chain: EPPTQKPKKIVNAKKDVVNTKMFEELKSRLDTLAQEVALLKEQQALQTVCLKGTKVHMKCFLAFTQTKTFHEASEDCISRGGTLSTPQTGSENDALYEYLRQSVGNEAEIWLGLNGWLEGAGWVDMTGARIAYKNWETEITAQPDGGWHWRWENCAVLSGAANGKWFDKRCRDQLPYICQFGIV
notes: ATRIMER
[1]
  Ka: 2.53e+07 M⁻¹
  Kd: 39.5 nM
  koff: 0.000526 s⁻¹
  kon: 13300 M⁻¹ s⁻¹

B7: 029-15.B3D (designed binder)
chain: EPPTQKPKKIVNAKKDVVNTKMFEELKSRLDTLAQEVALLKEQQALQTVCLKGTKVHMKCFLAFTQTKTFHEASEDCISRGGTLSTPQTGSENDALYEYLRQSVGNEAEIWLGLNELRTDGLWVDMTGARIAYKNWETEITAQPDGGVMRRSENCAVLSGAANGKWFDKRCRDQLPYICQFGIV
notes: ATRIMER; also called 9b3d
[3]
  Ka: 1.11e+06 M⁻¹
  Kd: 899 nM
  koff: 0.000104 s⁻¹
  kon: 116 M⁻¹ s⁻¹

B8: 029-15.B9F (designed binder)
chain: EPPTQKPKKIVNAKKDVVNTKMFEELKSRLDTLAQEVALLKEQQALQTVCLKGTKVHMKCFLAFTQTKTFHEASEDCISRGGTLSTPQTGSENDALYEYLRQSVGNEAEIWLGLNKRVWYRGWVDMTGARIAYKNWETEITAQPDGGMRRRRENCAVLSGAANGKWFDKRCRDQLPYICQFGIV
notes: ATRIMER; also called 2a1a
[3]
  Ka: 2.38e+07 M⁻¹
  Kd: 42.8 nM
  koff: 0.00184 s⁻¹
  kon: 43800 M⁻¹ s⁻¹

B9: 119p83P1H8 (designed binder)
chain: ALQTVCLKGTKVHMKCFLAFTQTKTFHEASEDCISRGGTLSTPQTGSENDALYEYLRQSVGNEAEIWLGLNGWLEGVGWVDMTGARIAYKNWGGSISAQPDGGWPFSNENCAVLSGAANGKWFDKRCRDQLPYICQFGIV
notes: on phage
[4]
  binding result: binds

B10: 119p94P1B8 (designed binder)
chain: ALQTVCLKGTKVHMKCFLAFTQTKTFHEASEDCISRGGTLSTPQTGSENDALYEYLRQSVGNEAEIWLGLNGWLEGVGWVDMTGARIAYKNWWSYWDTQPDGGWPFSNENCAVLSGAANGKWFDKRCRDQLPYICQFGIV
notes: on phage
[4]
  binding result: binds

B11: 119p83P1H12 (designed binder)
chain: ALQTVCLKGTKVHMKCFLAFTQTKTFHEASEDCISRGGTLSTPQTGSENDALYEYLRQSVGNEAEIWLGLNGWLEGVGWVDMTGARIAYKNWGTHISSQPDGGWPFSNENCAVLSGAANGKWFDKRCRDQLPYICQFGIV
notes: on phage
[4]
  binding result: binds

B12: 119p94P1B2 (designed binder)
chain: ALQTVCLKGTKVHMKCFLAFTQTKTFHEASEDCISRGGTLSTPQTGSENDALYEYLRQSVGNEAEIWLGLNGWLEGVGWVDMTGARIAYKNWWFPTLSQPDGGWPFSNENCAVLSGAANGKWFDKRCRDQLPYICQFGIV
notes: on phage
[4]
  binding result: binds

B13: 119p94P1A4 (designed binder)
chain: ALQTVCLKGTKVHMKCFLAFTQTKTFHEASEDCISRGGTLSTPQTGSENDALYEYLRQSVGNEAEIWLGLNGWLEGVGWVDMTGARIAYKNWFAEFFLQPDGGWPFSNENCAVLSGAANGKWFDKRCRDQLPYICQFGIV
notes: on phage
[4]
  binding result: binds

B14: 119p94P1G1 (designed binder)
chain: ALQTVCLKGTKVHMKCFLAFTQTKTFHEASEDCISRGGTLSTPQTGSENDALYEYLRQSVGNEAEIWLGLNGWLEGVGWVDMTGARIAYKNWGEVIAPQPDGGWPFSNENCAVLSGAANGKWFDKRCRDQLPYICQFGIV
notes: on phage
[4]
  binding result: binds

B15: 119p94P1D2 (designed binder)
chain: ALQTVCLKGTKVHMKCFLAFTQTKTFHEASEDCISRGGTLSTPQTGSENDALYEYLRQSVGNEAEIWLGLNGWLEGVGWVDMTGARIAYKNWLDVTKTQPDGGWPFSNENCAVLSGAANGKWFDKRCRDQLPYICQFGIV
notes: on phage
[4]
  binding result: binds

B16: 119p94P1E7 (designed binder)
chain: ALQTVCLKGTKVHMKCFLAFTQTKTFHEASEDCISRGGTLSTPQTGSENDALYEYLRQSVGNEAEIWLGLNGWLEGVGWVDMTGARIAYKNWIWSRIEQPDGGWPFSNENCAVLSGAANGKWFDKRCRDQLPYICQFGIV
notes: on phage
[4]
  binding result: binds

B17: 119p94P1D11 (designed binder)
chain: ALQTVCLKGTKVHMKCFLAFTQTKTFHEASEDCISRGGTLSTPQTGSENDALYEYLRQSVGNEAEIWLGLNGWLEGVGWVDMTGARIAYKNWGSTGEKQPDGGWPFSNENCAVLSGAANGKWFDKRCRDQLPYICQFGIV
notes: on phage
[4]
  binding result: binds

B18: 119p94P1B6 (designed binder)
chain: ALQTVCLKGTKVHMKCFLAFTQTKTFHEASEDCISRGGTLSTPQTGSENDALYEYLRQSVGNEAEIWLGLNGWLEGVGWVDMTGARIAYKNWHPQGDRQPDGGWPFSNENCAVLSGAANGKWFDKRCRDQLPYICQFGIV
notes: on phage
[4]
  binding result: binds

B19: 119p94P1H10 (designed binder)
chain: ALQTVCLKGTKVHMKCFLAFTQTKTFHEASEDCISRGGTLSTPQTGSENDALYEYLRQSVGNEAEIWLGLNGWLEGVGWVDMTGARIAYKNWSTAQNGQPDGGWPFSNENCAVLSGAANGKWFDKRCRDQLPYICQFGIV
notes: on phage
[4]
  binding result: binds

B20: 119p94P1H3 (designed binder)
chain: ALQTVCLKGTKVHMKCFLAFTQTKTFHEASEDCISRGGTLSTPQTGSENDALYEYLRQSVGNEAEIWLGLNGWLEGVGWVDMTGARIAYKNWSLSWHPQPDGGWPFSNENCAVLSGAANGKWFDKRCRDQLPYICQFGIV
notes: on phage
[4]
  binding result: binds

B21: 119p94P1D4 (designed binder)
chain: ALQTVCLKGTKVHMKCFLAFTQTKTFHEASEDCISRGGTLSTPQTGSENDALYEYLRQSVGNEAEIWLGLNGWLEGVGWVDMTGARIAYKNWAAFPVEQPDGGWPFSNENCAVLSGAANGKWFDKRCRDQLPYICQFGIV
notes: on phage
[4]
  binding result: binds

B22: 119p94P1E10 (designed binder)
chain: ALQTVCLKGTKVHMKCFLAFTQTKTFHEASEDCISRGGTLSTPQTGSENDALYEYLRQSVGNEAEIWLGLNGWLEGVGWVDMTGARIAYKNWRVPSLRQPDGGWPFSNENCAVLSGAANGKWFDKRCRDQLPYICQFGIV
notes: on phage
[4]
  binding result: binds
